Data published in patent US20080311122, “Antagonists of Hmgb1 and/or Rage and Methods of Use Thereof” (Medimmune, LLC, published 2008).

Key:
RAGE/Fc = target: T1, RAGE/Fc (Mus musculus, UniProt Q62151 Q62151:23-340); assay: ELISA, CpG-A alone on immobilized RAGE/Fc; conditions: tags: Fc fusion, R&D Systems; chain copies: 2; label: biotin (ELISA)
T1 chain: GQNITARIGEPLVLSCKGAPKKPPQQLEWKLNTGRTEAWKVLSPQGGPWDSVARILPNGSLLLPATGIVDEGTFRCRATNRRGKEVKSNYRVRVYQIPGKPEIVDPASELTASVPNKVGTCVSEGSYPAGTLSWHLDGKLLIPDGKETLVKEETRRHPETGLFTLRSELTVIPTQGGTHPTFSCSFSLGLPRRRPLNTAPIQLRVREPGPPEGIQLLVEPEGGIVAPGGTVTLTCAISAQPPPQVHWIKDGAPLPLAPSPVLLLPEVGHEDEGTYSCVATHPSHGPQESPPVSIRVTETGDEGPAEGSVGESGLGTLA

HMGB1 + RAGE/Fc complex [1] = target: T2, HMGB1 + RAGE/Fc complex (Bos taurus / Mus musculus, UniProt P10103;Q62151 P10103:2-215,Q62151:23-340); assay: ELISA; CpG-A associates with immobilized RAGE/Fc only when pre-complexed with HMGB1; CpG-A lowers EC50 of HMGB1-RAGE binding 100-1000 fold; conditions: tags: thymus HMGB1; RAGE Fc fusion (R&D Systems); label: biotin (ELISA)
T2 chain 1: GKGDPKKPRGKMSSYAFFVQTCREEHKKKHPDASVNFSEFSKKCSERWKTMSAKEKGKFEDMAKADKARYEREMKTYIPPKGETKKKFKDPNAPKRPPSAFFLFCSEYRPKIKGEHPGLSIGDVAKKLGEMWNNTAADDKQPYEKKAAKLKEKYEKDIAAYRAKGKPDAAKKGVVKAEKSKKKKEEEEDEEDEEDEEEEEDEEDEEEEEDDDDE
T2 chain 2: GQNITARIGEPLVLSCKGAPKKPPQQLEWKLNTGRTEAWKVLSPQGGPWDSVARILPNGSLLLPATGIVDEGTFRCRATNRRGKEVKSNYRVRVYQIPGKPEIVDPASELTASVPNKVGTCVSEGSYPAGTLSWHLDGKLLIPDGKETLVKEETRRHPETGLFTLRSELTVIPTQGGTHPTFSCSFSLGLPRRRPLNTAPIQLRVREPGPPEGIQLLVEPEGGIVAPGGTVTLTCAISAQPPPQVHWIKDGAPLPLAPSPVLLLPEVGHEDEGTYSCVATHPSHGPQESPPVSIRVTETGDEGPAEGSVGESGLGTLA
Protocol: (§1) CpG ELISA: Proteins or peptides were diluted in PBS to the concentration of 5 μg/ml and coated onto plates at 4° C. o/n. Plates were blocked with 4% dry milk in PBS. Biotin labeled CpG-A alone or in complex with HMGB1 were incubated in the plates at 37° C. for 1 hr. and detected with HRP labeled strep-avidin.

[2] = target: T3, HMGB1 (native, calf/bovine thymus) (Bos taurus, UniProt P10103 P10103:2-215); assay: apparent Kd; intrinsic tryptophan fluorescence quench, 1.7 uM HMGB1, 1:10 DPBS, 25 C; conditions: tags: none; purified from bovine thymus at Medimmune; label: biotin (ELISA)
Protocol: Tryptophan emission for CpG-A binding to HMGB1: Fluorescence titrations and spectra of HMGB-1 were carried out at 25° C. with a SPEX Fluoromax-3 spectrofluorimeter, monitoring the HMGB-1 intrinsic tryptophan emission at 347 nm (8 nm bandwidth) with 280 nm excitation (3 nm bandwidth) in a masked capped dual-pathlength (0.2×1.0 cm) quartz cell (Hellma Cells, Inc., Jamaica, N.Y.) upon stepwise addition of CpG-A (0.5 mM) to a 1.7 μM solution of HMGB-1 in 1:10 Dulbecco Phosphate Buffered Saline (PBS) solution (Invitrogen, Carlsbad, Calif.). Complex formation between HMGB-1 and the nucleic acid was monitored by the change in the initial fluorescence of the protein. HMGB-1 fractional saturation was inferred from the ratio of observed fluorescence change to maximal change (at saturation), Fₗᵢₘ, for each of the nucleic acid additions. Binding affinity was calculated from graphs of relative fluorescence intensity versus [nucleic acid base]/[protein].The occluded binding site size (n) was derived from the intersection of the extrapolated initial slope with the limiting fluorescence plateau in the equilibrium binding isotherms. The measurements for assessment of Tryptophan emission are reviewed in detail in Lakowicz, 2000, Photochem. Photobiol. 72, 421-437.
The binding of immobilized HMGB1 to soluble CpG-A was determined by ELISA (FIG. 33, top left). […]

HMGB1 A-box peptide = target: T4, HMGB1 A-box peptide (Homo sapiens, UniProt P09429 SEQ:1-77); assay: affinity comparable to full-length HMGB1; data not shown; stated only as CpG DNA; conditions: protein: synthetic; tags: synthetic peptide, New England Peptide; label: biotin (ELISA)
T4 sequence: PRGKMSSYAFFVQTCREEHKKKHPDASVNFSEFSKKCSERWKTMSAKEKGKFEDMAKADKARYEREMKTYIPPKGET
Protocol: as §1

HMGB1 B-box peptide = HMGB1 B-box peptide (Homo sapiens, UniProt P09429 SEQ:1-69); assay: as above; conditions: protein: synthetic; tags: synthetic peptide, New England Peptide; label: biotin (ELISA)
Protocol: as §1

[3] = target: T3, HMGB1 (native, calf/bovine thymus); assay: data not shown; p546 states conversely that HMGB1 binds both A and B class ODN; conditions: tags: none; purified from bovine thymus at Medimmune
HMGB1 + RAGE/Fc complex [4] = target: T2, HMGB1 + RAGE/Fc complex; assay: HMGB1/CpG-B complex failed to augment binding to RAGE; data not shown; conditions: tags: thymus HMGB1; RAGE Fc fusion (R&D Systems)
[5] = target: T3, HMGB1 (native, calf/bovine thymus); assay: non-stimulatory CpG-A control sequence bound; tryptophan fluorescence; conditions: tags: none; purified from bovine thymus at Medimmune
[6] = target: T3, HMGB1 (native, calf/bovine thymus); assay: random DNA not bound; conditions: tags: none; purified from bovine thymus at Medimmune

GGGGGACGATCGTCGGGGGG (ssDNA) [CpG-A (ODN2216)] was tested, and the binding result (RAGE/Fc) was “no binding”, the binding result (HMGB1 + RAGE/Fc complex [1]) was “binds” and the Kd [2] was 70 nM. GGGGGACGATCGTCGGGGGG (ssDNA) [CpG-A (ODN2216)]: binds (HMGB1 A-box peptide); binds (HMGB1 B-box peptide).

TCGTCGTTTTGTCGTTTTGTCGTT (ssDNA) [CpG-B (ODN 2006)]: no binding [3]; no binding (HMGB1 + RAGE/Fc complex [4]).

GGGGGAGCATGCTGGGGGGC (ssDNA) [control ODN for CpG-A (non-stimulatory)]: binds [5].

GGTCGTTCCATTTTACTCCAC (ssDNA) [random DNA ODN]: no binding [6].
